Experimental data as given in PMC8863163 (Research Square, 2022).

Target: T1, SARS-CoV-2 nsp12 (RNA-dependent RNA polymerase with N-terminal NiRAN domain) (SARS-CoV-2, UniProt P0DTD1)
T1 construct: also called RdRp; WT nsp12
Assay: cryo-EM structure
Settings: both partners purified

B1: SARS-CoV-2 nsp9 with native N-terminus (natural protein)
chain: NNELSPVALRQMSCAAGTTQTACTDDNALAYYNTTKGGRFVLALLSDLQDLKWARFPKSDGTGTIYTELEPPCRFVTDTPKGPKVKYLYFIKGLNNLNRGMVLGSLAATVRLQ
notes: also called native nsp9
B1: binds.
